This assay addresses T1, 4-1BB(24-180)-His重组蛋白 (4-1BB胞外段24-180位氨基酸, C端6个His) (UniProt Q07011 24-180).
T1 construct: range 24-180; Human is implied by the human therapeutic context; The monomer was used for immunisation and the ELISA screen; also called 4-1BB-His蛋白; 4-1BB蛋白
Briefly: SPR, antibody captured on Protein A chip, 4-1BB protein 6.25-400 nM as analyte. (SPR reads the build-up and loss of mass on a sensor chip optically.)

B1: 人源化11B6-hu-a抗体 (antibody, human IgG4 S228P, kappa, V domains shown)
VH: QVQLVQSGAEVKKPGSSVKVSCKASGYTFTSYWINWVRQAPGQGLEWIGNIYPSDSYTNYNQKFQGRVTITADESTSTAYMELSSLRSEDTAVYYCTRESQTGTGYYAMDYWGQGTLVTVSS
VL: DIQMTQSPSSLSASVGDRVTITCQASQDISNYLNWYQQKPGKAPKLLIYYTSRLHSGVPSRFSGSGSGTDFTFTISSLQPEDIATYYCQQGNTLPWTFGGGTKLEIKR
Turning to B1, the affinity, expressed as Kd, was 5.84 nM.

B2: 人源化11B6-hu-b抗体 (antibody, human IgG4 S228P, kappa, V domains shown)
VH: QVQLVQSGAEVKKPGASVKVSCKASGYTFTSYWINWVRQAPGQGLEWIGNIYPSDSYTNYNQKFQGRVTMTRDTSTSTVYMELSSLRSEDTAVYYCTRESQTGTGYYAMDYWGQGTLVTVSS
VL: DIQMTQSPSSLSASVGDRVTITCRASQDISNYLNWYQQKPGKAPKLLIYYTSRLHSGVPSRFSGSGSGTDFTLTISSLQPEDFATYYCQQGNTLPWTFGQGTKVEIKR
Consider B2, for which binding was characterised by a dissociation constant (Kd) of 9 nM. This Kd lies about 1.5-fold higher than the previous one.

B3: 11B6嵌合抗体 (antibody, human IgG4 S228P, kappa, V domains shown)
VH: QVQLQQPGAELVRPGASVKLSCKASGYTFTSYWINWVKQRPGQGLEWIGNIYPSDSYTNYNQKFKDKATLTVDKSSSTAYMQLSSPTSEDSAVYYCTRESQTGTGYYAMDYWGQGTSVTVSS
VL: DIQMTQTTSSLSASLGDRVTISCRASQDISNYLNWYQQKPDGTVKLLIYYTSRLHSGVPSRFSGSGSGTDYSLTISNLEQEDIATYFCQQGNTLPWTFGGGTKLEIKR
notes: Mouse 11B6 variable regions on a human IgG4 constant region and a human kappa constant region; also called 11B6 chimeric antibody
As to B3, the Kd was found to be 3.75 nM.

Usually Kd stands for the concentration at which binding is half-saturated.

The values above are taken from patent CN111484554A (YINGWEIFUSAI BIOTECHNOLOGY CO LTD, dated 2020).
